Experimental data taken from patent US7381537B2, “Use of inhibitors of glutaminyl cyclases for treatment and prevention of disease” (Probiodrug AG, priority 2003, dated 2008).

Legend:
Assay in all cases: purified protein, by the assay type;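 note: initial rates read in microplates at 30 °C, with enzyme activity quantified against an ammonia calibration curve recorded under the same assay conditions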
[1] = substrate: N=C(N)NCCC[C@H](NC(=O)[C@H](Cc1ccccc1)NC(=O)[C@@H](N)CCC(N)=O)C(=O)N[C@@H](Cc1c[nH]cn1)C(=O)N[C@@H](CC(=O)O)C(=O)N[C@@H](CO)C(=O)NCC(=O)N[C@@H](Cc1ccc(O)cc1)C(=O)N[C@@H](CCC(=O)O)C(N)=O; details: other: recombinant human QC, buffer solution containing 1% DMSO; pH 8.8
Experimental: (§1) The initial velocities were evaluated and the enzymatic activity was determined from a standard curve of ammonia under assay conditions. All samples were measured at 30° C., using either the [sequence]luor Plus or the Sunrise (both from TECAN) reader for microplates. Kinetic data was evaluated using GraFit software.

[2] = substrate: C[C@H](NC(=O)[C@H](C)NC(=O)[C@H](CO)NC(=O)[C@H](C)NC(=O)[C@H](C)NC(=O)[C@@H](N)CCC(N)=O)C(N)=O; details: other: Table 6, influence of substrate length; pH 8.8
Experimental: as §1

[3] = substrate: CC(C)C[C@H](NC(=O)[C@H](CCCNC(=N)N)NC(=O)[C@H](CCCCN)NC(=O)[C@H](Cc1ccccc1)NC(=O)C[C@@H](N)CCC(N)=O)C(=O)N[C@@H](C)C(N)=O; details: other: text b245; pH 8.8
Experimental: as §1

[4] = substrate: CC(C)C[C@H](NC(=O)[C@H](CCCCN)NC(=O)[C@H](CCC(N)=O)NC(=O)[C@H](Cc1c[nH]cn1)NC(=O)[C@H](Cc1c[nH]cn1)NC(=O)[C@@H](NC(=O)[C@H](CCC(=O)O)NC(=O)[C@H](Cc1ccc(O)cc1)NC(=O)CNC(=O)[C@H](CO)NC(=O)[C@H](CC(=O)O)NC(=O)[C@H](Cc1c[nH]cn1)NC(=O)[C@H](CCCNC(=N)N)NC(=O)[C@H](Cc1ccccc1)NC(=O)[C@@H](N)CCC(N)=O)C(C)C)C(=O)N[C@H](C(=O)N[C@@H](Cc1ccccc1)C(=O)N[C@@H](Cc1ccccc1)C(=O)N[C@@H](C)C(N)=O)C(C)C; details: other: recombinant human QC, buffer solution containing 1% DMSO; pH 8.8
Experimental: as §1

[5] = substrate: C[C@H](NC(=O)[C@H](C)NC(=O)[C@H](C)NC(=O)[C@H](C)NC(=O)[C@@H](N)CCC(N)=O)C(N)=O; details: other: Table 6, influence of substrate length; pH 8.8
Experimental: as §1

B1: human QC (Homo sapiens) (protein)
chain: VSPSASAWPEEKNYHQPAILNSSALRQIAEGTSISEMWQNDLQPLLIERYPGSPGSYAARQHIMQRIQRLQADWVLEIDTFLSQTPYGYRSFSNIISTLNPTAKRHLVLACHYDSKYFSHWNNRVFVGATDSAVPCAMMLELARALDKKLLSLKTVSDSKPDLSLQLIFFDGEEAFLHWSPQDSLYGSRHLAAKMASTPHPPGARGTSQLHGMDLLVLLDLIGAPNPTFPNFFPNSARWFERLQAIEHELHELGLLKDHSLEGRYFQNYSYGGVIQDDHIPFLRRGVPVLHLIPSPFPEVWHTMDDNEENLDESTIDNLNKILQVFVLEYLHL
Km [1]: 155 ± 4 µM
kcat [1]: 41.4 ± 0.4 s⁻¹
kcat/Km [1]: 267000 ± 4000 M⁻¹ s⁻¹
Km [2]: 79 ± 6 µM
kcat [2]: 55.3 ± 1.6 s⁻¹
kcat/Km [2]: 700000 ± 33000 M⁻¹ s⁻¹
Km [3]: 2500 ± 200 µM
kcat [3]: 3.5 ± 0.1 s⁻¹
kcat/Km [3]: 1300 ± 100 M⁻¹ s⁻¹
Km [4]: 162 ± 12 µM
kcat [4]: 62 ± 3 s⁻¹
kcat/Km [4]: 383000 ± 10000 M⁻¹ s⁻¹
Km [5]: 65 ± 3 µM
kcat [5]: 60.5 ± 0.7 s⁻¹
kcat/Km [5]: 1.174e+06 ± 43000 M⁻¹ s⁻¹
